# Data taken from the DeepSol protein solubility set.
# Assay: soluble on expression in E. coli; label from the status in PepcDB or PDB records
row,Sequence,soluble on expression in E. coli
1,MIDIHCHILPAMDDGAGDSADSIEMARAAVRQGIRTIIATPHHNNGVYKNEPAAVREAADQLNKRLIKEDIPLHVLPGQEIRIYGEVEQDLAKRQLLSLNDTKYILIEFPFDHVPRYAEQLFYDLQLKGYIPVIAHPERNREIRENPSLLYHLVEKGAASQITSGSLAGIFGKQLKAFSLRLVEANLIHFVASDAHNVKTRNFHTQEALYVLEKEFGSELPYMLTENAELLLRNQTIFRQPPQPVKRRKLFGFF,not soluble
2,MIDLDSLEHIGVLGKPHGVQGECNARLTADLSTLFEEEERLFLFFELDALPVPFRLIGYREKTDDITLLRFAGIESKEEMEQYTGVSLFMERRYFDTDSIEFTWEHFIGFTVFDREGCFVGTIDDVDESTLNVLLSITTPEGKELLLPVAEDLLEEIDVPNRKLTMIIPDGLLQLLEHHHHHH,soluble
3,MIDLRKLTEVQRRLSRKIVEKPIDIAKVKRVGAVDVSYKNNFAKAAFVCVEFPSGEIIKTKTIVTTVEFPYIPTFFFLRETKPILLAVKDENFDVLLVEGHGKAHPRRYGLASHIGVILSKPTIGVAKRLLRGVSKDTYVKVGKAFVSVGNLITLNDAVRIVEKLLDENGYPKPLNIADKLSKRGESREKELEHHHHHH,not soluble
4,MIDVHCHLVDNKFKEDLDDVIGHAHATGIQKMINFPEFESQFEKSIGISKKWPGSVYTGIGIHPIQKRGKSAKMKHISKMEQFFVEHERDIICVGECGLDHTISQFKLTTEDFEEQETVFKWQIDLAKHFEKPLNVHSRSAARRTIEILLECHVAPDQVVLHAFDGTPGDLKLGLEAGYLFSIPPSFGKSEETTQLIESIPLSQLLLETDSPALGPEKGCKNVPANLRISAEIVAKIKKLEIDDIISATSTNANRIFKF,soluble
5,MIEFTALDDLSLLRESVSLECKLAQGRDGKGALPDDFWPTYSAMANTDGGIVILGVRERKGQFEVAGIENPDKLRTELFNHLNNRQKVSVNLLRDEDVRAWPVEGKTLLVVEIPRARRQQRPVYLRGNPLGGHTYRRLHEGDRPLPDEDVKRMLAEQVEDSRDERILPGYGLDDLHLESLRAYRQLFANRDPSHPWNALADQAFLRQIGGWRQHRETGEAGLTLAGLLMFGQWSSITEAVPLCFLDYQERPADYATTVQWLDRIVPDGTWSGNVFDFYRRVVGKLTADIKVPFVLKGDIRQDDTPTHKALREALVNTLVHADYTGRISVLVVKEPAGFVLRNPGGLRVPAQQALQGGMSDCRNRTMQQMFLMIGLGERAGSGMSRIVHGWRDLGHELHLRESYEPHEHSVLEMFWAKGRGATLASESSEESSEESSEETGKKILHLLREEPSLTASALARRLQLTPRAIEKQLEHHHHHH,not soluble
6,MIEIKHLKTLQALRNSGSLAAAAAVLHQTQSALSHQFSDLEQRLGFRLFVRKSQPLRFTPQGEVLLQLANQVLPQISRALQACNEPQQTRLRIAIECHSCIQWLTPALENFRASWPQVEMDFTSGVTFDPQPALQQGELDLVMTSDILPRSGLHYSPMFDFEVRLVLAPDHPLASKTQITPEDLASETLLIYPVQRSRLDVWRHFLQPAGISPLLKSVDNTLLLIQMVAARMGIAALPHWVVESVERQGLVVTKTLGDGLWSRLYAAVRDGDQRQAVTEAFIRSTRDHACDHLPFVRSAERPIFDAPTAKPGSQPRL,not soluble
7,MIENAKENSQRVELKDRIIETASEAFTTHGIKSITMDDIAASLGISKRTLYEVFQDKESLLTQCILKRQEEMNAFLAETLANSKNVLEVILVCYQRSIETFHRTNKRFFEDIKKYPKVHSLLKNYRERDSDSTIEFFKMGIKQGIFRDDVNFAIVNLLVHEQLDLLMNTDICNKYSFLEVYEAIMFTYIRGISTEKGAKVLEDFITEYRKQRIH,not soluble
8,MIERYSREEMSNIWTDQNRYEAWLEVEILACEAWSELGHIPKADVQKIRQNAKVNVERAQEIEQETRHDVVAFTRQVSETLGEERKWVHYGLTSTDVVDTALSFVIKQANDIIEKDLERFIDVLAEKAKNYKYTLMMGRTHGVHAEPTTFGVKMALWYTEMQRNLQRFKQVREEIEVGKMSGAVGTFANIPPEIESYVCKHLGIGTAPVSTQTLQRDRHAYYIATLALIATSLEKFAVEIRNLQKTETREVEEAFAKGQKGSSAMPHKRNPIGSENITGISRVIRGYITTAYENVPLWHERDISHSSAERIMLPDVTIALDYALNRFTNIVDRLTVFEDNMRNNIDKTFGLIFSQRVLLALINKGMVREEAYDKVQPKAMISWETKTPFRELIEQDESITSVLTKEELDECFDPKHHLNQVDTIFERAGLA,soluble
9,MIETKRQQERVILLGVELQTTEHFDMSMTELANLAKTAGVKVMASFSQKRERYDSKTFIGSGKLDEIKAIVEADEIDAVIVNNRLTARQNANLEAVLEVKVIDRMQLILDIFAMRARSHEGKLQVHLAQLKYMLPRLVGQGIMLSRQAGGIGSRGPGESQLELNRRSIRHQIADIERQLTQVEKNRQTIRDRRVGSDTFKIGLIGYTNAGKSTIMNLLTDDSHYEANELFATLDATTKQLYLENQFQATLTDTVGFIQDLPTELVAAFKSTLEESKYVDLLLHVIDASDPNHSEQEKVVLNLLKELDMLNIPRLAIYNKVDIAEQFTATAFPNIRISARSKDSKILLRRLIIDQIRDQFVPFRIKVHQDKAYKLYDLNRVALLDHYTFDQEIEDISGYISPKQQWRLDDFYELEHHHHHH,soluble
10,MIEVKHLKTLQALRNCGSLAAAAATLHQTQSALSHQFSDLEQRLGFRLFVRKSQPLRFTPQGEILLQLANQVLPQISQALQACNEPQQTRLRIAIECHSCIQWLTPALENFHKNWPQVEMDFKSGVTFDPQPALQQGELDLVMTSDILPRSGLHYSPMFDYEVRLVLAPDHPLAAKTRITPEDLASETLLIYPVQRSRLDVWRHFLQPAGVSPSLKSVDNTLLLIQMVAARMGIAALPHWVVESFERQGLVVTKTLGEGLWSRLYAAVRDGEQRQPVTEAFIRSARNHACDHLPFVKSAERPTYDAPTVRPGSPARL,soluble
11,MIFENRLALSAMAGVNNAEFCRKQKASLVILGGFNADRRALEAAEKAVKRGRKEFLFGIDGIEGEIKKLGRRKFAVNVRSSSLEGYLNVAELVAEFEGIIEINAHCRQPEFVEIGCGEWLLFNHERLVEIVSKTSRIAPTFVKIRGGHKLDYEKIARKLFDAGCLAIHVDAMIPGGGCDFSLIERISRIGNVIGNNSFVDIESGERIIMAGAKMASAARAVLRDENFFEKMLRSPLLSQPVELSCGRFRLEHHHHHH,soluble
12,MIFRAKANKALDRAEDPRETLDYSYQKQLELLQKVRRGVADVATSRKRLELQLNQLQSQSGKLEDQGRKALALGREDLAREALSRRAALQQQVTDLETQHATLQGEEEKLTLAAQRLQAKVDAFRTKKETIKATYTAAQAQTRIGEAFSGISEEMGDVGLAIQRAEDKTAQLQARAGAIDELLASGALDDQSGMHKDDIQAELDRLSGGTDVELELQRMKAELAGGSTSDRQAIEGGQGQGEASSQSQQPQDTPRFDKQLEHHHHHH,not soluble
13,MIGGRLKSLRGKRTQEEIASHIGVSRARYSHYENGRSEPDYDTLQKLADYFQVTTDYLLTGKDKKSDDDMFSDPDLQLAYRDMQDFSPESKQQAIEFINYLKEKEKNRKPKNK,not soluble
14,MIGILKKVFDVNQRQIKRMQKTVEQIDALESSIKPLTDEQLKGKTLEFKERLTKGETVDDLLPEAFAVVREAATRVLGMRPYGVQLMGGIALHEGNISEMKTGEGKTLTSTLPVYLNALTGKGVHVVTVNEYLAQRDANEMGQLHEFLGLTVGINLNSMSREEKQEAYAADITYSTNNELGFDYLRDNMVLYKEQCVQRPLHFAIIDEVDSILVDEARTPLIISGQAQKSTELYMFANAFVRTLENEKDYSFDVKTKNVMLTEDGITKAEKAFHIENLFDLKHVALLHHINQALRAHVVMHRDTDYVVQEGEIVIVDQFTGRLMKGRRYSEGLHQAIEAKEGVEIQNESMTLATITFQNYFRMYEKLSGMTGTAKTEEEEFRNIYNMNVIVIPTNKPIIRDDRADLIFKSMKGKFNAVVEDIVNRHKQGQPVLVGTVAIETSELISKMLTRKGVRHNILNAKNHAREADIIAEAGMKGAVTIATNMAGRGTDIKLGDDIKNIGLAVIGTERHESRRIDNQLRGRAGRQGDPGVTQFYLSMEDELMRRFGSDNMKAMMDRLGMDDSQPIESKMVSRAVESAQKRVEGNNYDARKQLLQYDDVLRQQREVIYKQRQEVMESENLRGIIEGMMKSTVERAVALHTQEEIEEDWNIKGLVDYLNTNLLQEGDVKEEELRRLAPEEMSEPIIAKLIERYNDKEKLMPEEQMREFEKVVVFRVVDTKWTEHIDAMDHLREGIHLRAYGQIDPLREYQMEGFAMFESMIASIEEEISRYIMKAEIEQNLERQEVVQGEAVHPSSDGEEAKKKPVVKGDQVGRNDLCKCGSGKKYKNCCGIGK,not soluble
15,MIGVVGGGIAGLSAAYRLQQRGHEVRVFEASEDLGGLAATYETAGDPIEKFYHHLSKSEETIVDLAEELGLGDAVEWHIGENAYYVDGVVHPMDKPWEILSYPHLSLYDTFRLGMLVLDIDVRGGVPSFDTYERLEDFEGVPIEEFVVDHTTRGVYENFFEPLLDAKFGDRKDDVSAAWLLGRVKFRGERDILNGEILGYFDGGFGRLLDALVDAVGRDNIATGTRVSDIDTSGGTVSSLTATDGTETTVHDVDSVVVATMPNVLEALTGYTCDIDFQGTVCSVISMDEPLLDTYWLNIADDAPFGALIEHTNFVSAERYGGEHLLYVARYIQDESEAIWQQSDDEVAETWLQGIESLFPDFDRDAVNWIRTGRNPRTAPVYERGYLDMVIPYDLSDAVADGLYYAGMASRAQYPERSLNGGIVAGFECADRIARDPSAATKTDESPLSEAQRLEHHHHHH,not soluble
16,MIHKRTNEGDLVIESFADKRCKDLLEGNPPKGFPTTLVRIVQRKLFMLDKAVDLKDLRSPPGNRLEALKGERKGQYSIRINDQFRICFEWRSNGAYEVEIVDYH,not soluble
17,MIHSNEPLPYAIEYAKSGRSTCKTCKKNIALDQLRMSMNRPSTFFDGNMDSWFHYNCFWNKMIRGRDDINISSIRGVDWLRWEDQEKLRQEIQHFKTASPPTLTPLFSTTTVILSTIKTEKSLSNRGKCGKCGQNFERGEIKAHNKGKANHFECFLQEFDKISGTVEDIPGWADYEANFKIKATGEYVEALAAKGGSTEPATPASASPTPPEAETPVLSAEGSPESSNKRPASAEIIEIDGEGNPDENDFAKKRRMKKEARLMEVQKKRMKKQSDLLWEYRQIFERMPYTDNISILRENEQDIPEGHDRTAQDVFHEKTKNDWIYRKHFRKMPGMFSYVETDYSEFVGTNNGHKKKITPGSKITPGSKTLLPKSVKEVVMSIFDVENMKSALKSFEIDVNKMPLGRLSHNQINLAFEVLNDISDLLVKLPIDASKILDFSNKFYTIIPHNFGMRVPEPIDSFHKIKEKNNMLNALLDIKFAYDQISGGDVPASTSLSIDPVDINYRKLKCIMEPLQQGCDDWNMIHQYLKNTHGATHDLKVELIDILKVNRDNESSKFKRHIGNRRLLWHGSGKMNFAGILGQGLRIAPPEAPVSGYMFGKGVYFADMFSKSFFYCRANAKEEAYLLLCDVALGNVQQLMASKNVSRQTLPAGFQSVQGVGRQCPREIGSYKNPDGYTVPLGLTYMQLQGKQNVDYHLLYNEFIVYDVDQIQLKYLVRVKMHHARHL,not soluble
18,MIHSSVKRWGNSPAVRIPATLMQALNLNIDDEVKIDLVDGKLIIEPVRKEPVFTLAELVNDITPENLHENIDWGEPKDKEVW,soluble
19,MIIEFEEKLLDLIDAQVVNASSDELFAGGYLRGHISLSAAQCEEEGITELDVLKQRIEQSLEAARSELSPADRAIVAELWQQLAAQA,not soluble
20,MIIEKKIKNYTVFVKKDGEKYIEIFKDFLSYNHQVIKVFRNIEDTKVVLINTDYGKYILKVFSPKVKNTERFFKSLVKGDYYEKLFHQTDRVRREGFAALNDFYLLAEIKTLRYVKTYVMIIEYIEGIELVDMPEISDEVRGKIKQSIYSLHQHGMVSGDPHKGNFILQGNEIRIIDLSGKRPSRQRKAKDRIDLERHYGIKNNVRDIGFYLLIYKKKLRNFLRRIKGKEKRLEHHHHHH,not soluble
